Assay: Experiment 8: interaction of BMX-001 with t-PA (blood clot dissolution)
Parameters: species or system rat
Conditions: rat blood clots; 1 mg/ml t-PA with or without 50 μg/ml BMX-001; 37° C. for 30 minutes
Description: Fresh arterial blood samples were collected from young male rats and distributed into 21 pre-weighed centrifuge tubes. After sitting at 37° C. for 3 hours, the blood clots were formed. The supernatant was removed from these tubes and then the tubes with blood clots were weighed. The weight of the blood clot was calculated (=the tube with blood clot-pre-weighed tube). Then, 1 ml saline, t-PA (1 mg/ml) or t-PA (1 mg/ml) plus BMX-001 (50 μg/ml) were added (n=7 for each group) and tubes placed in 37° C. dry incubator for 3 hours. The liquids were then removed from the tubes. The tubes with remaining blood clots were weighed again. The percentage of blood clot dissolved by t-PA was calculated.

B1: tissue plasminogen activator (protein, UniProt P00750 36-562, looked up)
Tissue-type plasminogen …: SYQVICRDEKTQMIYQQHQSWLRPVLRSNRVEYCWCNSGRAQCHSVPVKSCSEPRCFNGGTCQQALYFSDFVCQCPEGFAGKCCEIDTRATCYEDQGISYRGTWSTAESGAECTNWNSSALAQKPYSGRRPDAIRLGLGNHNYCRNPDRDSKPWCYVFKAGKYSSEFCSTPACSEGNSDCYFGNGSAYRGTHSLTESGASCLPWNSMILIGKVYTAQNPSAQALGLGKHNYCRNPDGDAKPWCHVLKNRRLTWEYCDVPSCSTCGLRQYSQPQFRIKGGLFADIASHPWQAAIFAKHRRSPGERFLCGGILISSCWILSAAHCFQERFPPHHLTVILGRTYRVVPGEEEQKFEVEKYIVHKEFDDDTYDNDIALLQLKSDSSRCAQESSVVRTVCLPPADLQLPDWTECELSGYGKHEALSPFYSERLKEAHVRLYPSSRCTSQHLLNRTVTDNMLCAGDTRSGGPQANLHDACQGDSGGPLVCLNDGRMTLVGIISWGLGCGQKDVPGVYTKVTNYLDWIRDNMRP
notes: standard thrombolytic therapy
With B1 the “Percentage of blood clot dissolved” value was 44.77±25.77%.
